Reference: PMC8537947, “Improved Radiolytic Stability of a ^68Ga-labelled Collagelin Analogue for the Imaging of Fibrosis” (Pharmaceuticals, 2021)
Bridge positions count the residues as written; N and C are the ends. Square brackets hold non-standard residues; d marks the D form. Peptide text beside a SMILES is read from it. * marks the point of attachment. NOTA = O=C(O)CN1CCN(CC(=O)O)CCN(CC(=O)*)CC1; Nle = CCCC[C@H](N)C(=O)O; AEEA = NCCOCCOCC(=O)O

Assay: in vivo
Design: species or system Sprague-Dawley rats
Details: Sprague-Dawley, rat, iv, total radioactivity
Description: Sixteen male (n = 10; 363.3 ± 19.6 g) and female (n = 6; 199.2 ± 5.5 g) Sprague–Dawley rats were used for ex vivo organ distribution of the [^68Ga]Ga-NO2A-[Nle13]-Col for the subsequent extrapolation and calculation of human dosimetry. The male and female animals were administered into the tail vein with, respectively, 2.3 ± 0.8 MBq and 1.4 ± 0.5 MBq, sacrificed at 5, 10, 30, 40, 60, and 120 min post administration, and the organs were harvested, weighted, and measured for their radioactivity content. Samples from the blood, heart, lung, liver, spleen, adrenal glands, kidneys, intestines with or without contents, muscle, testis, bone, brain, pancreas, urine bladder, and bone marrow were collected. To monitor radioactivity elimination and recovery, the radioactivity of the remaining carcass was also measured. The radioactivity measurements were corrected for decay and converted into standardized uptake values (SUVs, Table S2) according to Equation (2), wherein the radioactivity is expressed in MBq and the weight in grams:(2) SUV=Radioactivityorgan∗weightrat/Radioactivityinjected∗weightorgan

[1] = female, 1.4 MBq, SUV bladder (UB)
[2] = female, 1.4 MBq, SUV blood (BL)
[3] = female, 1.4 MBq, SUV brain (BR)
[4] = female, 1.4 MBq, SUV heart (HE)
[5] = female, 1.4 MBq, SUV liver (LI)
[6] = female, 1.4 MBq, SUV lungs (LU)
[7] = female, 1.4 MBq, SUV muscle (MU)
[8] = female, 1.4 MBq, SUV red bone marrow (BM)
[9] = female, 1.4 MBq, SUV spleen (SP)
[10] = female, SUV large intestine without content (INL-)
[11] = female, SUV small intestine with its content (INS+)

For CCCC[C@@H]1NC(=O)[C@H](C(C)C)NC(=O)[C@H](CCCNC(=N)N)NC(=O)CNC(=O)[C@@H]2CCCN2C(=O)[C@@H](NC(=O)COCCOCCNC(=O)CN2CCN(CC(=O)O)CCN(CC(=O)O)CC2)CSSC[C@@H](C(=O)O)NC(=O)[C@@H]2CCCN2C(=O)CNC(=O)[C@H](CCC(=O)O)NC(=O)[C@H](CC(=O)O)NC(=O)[C@H](CC(=O)O)NC(=O)CNC(=O)[C@H](CC(C)C)NC(=O)[C@H](Cc2c[nH]cn2)NC(=O)[C@H](CC(C)C)NC(=O)CNC(=O)[C@H](Cc2c[nH]cn2)NC1=O [[^68Ga]Ga-NO2A-[Nle^13]-Col, [^68Ga]Ga-NOTA-PEG2-c[CPGRVNleHGLHLGDDEGPC], metal not drawn] ({NOTA-AEEA}-CPGRV[Nle]HGLHLGDDEGPC-OH; disulfide 1-18), the SUV at 2 h (SUV of adrenal glands, bone marrow and urinary bladder) was < 0.25 SUV, the SUV at 1 h (SUV of all vital organs) was < 0.2 SUV and the SUV at 2 h (SUV of the remainder of the organs) was < 0.1 SUV. For the same molecule, the SUV at 2 h (both sexes, SUV of most of the organs) was < 0.25 SUV, the SUV at 5 min [1] was 4.88 SUV and the SUV at 10 min [1] was 6.96 SUV. The SUV at 0.5 h [1] was 5.83 SUV, the SUV at 40 min [1] was 0.843 SUV and the SUV at 1 h [1] was 1.08 SUV. For the same molecule, the SUV at 2 h [1] was 0.321 SUV, the SUV at 10 min [2] was 1.42 SUV and the SUV at 0.5 h [2] was 0.497 SUV. The SUV at 40 min [2] was 0.432 SUV, the SUV at 1 h [2] was 0.217 SUV and the SUV at 2 h [2] was 0.0412 SUV. It also gave an SUV at 5 min (female, 1.4 MBq, SUV bone (BO)) of 0.391 SUV, an SUV at 10 min (female, 1.4 MBq, SUV bone (BO)) of 0.403 SUV and an SUV at 0.5 h (female, 1.4 MBq, SUV bone (BO)) of 0.179 SUV. It also gave an SUV at 40 min (female, 1.4 MBq, SUV bone (BO)) of 0.106 SUV, an SUV at 1 h (female, 1.4 MBq, SUV bone (BO)) of 0.064 SUV and an SUV at 2 h (female, 1.4 MBq, SUV bone (BO)) of 0.031 SUV. It also gave an SUV at 5 min [3] of 0.073 SUV, an SUV at 10 min [3] of 0.0964 SUV and an SUV at 0.5 h [3] of 0.0189 SUV. It also gave an SUV at 40 min [3] of 0.0174 SUV, an SUV at 1 h [3] of 0.0149 SUV and an SUV at 2 h [3] of 0.0062 SUV. For the same molecule, the SUV at 5 min [4] was 0.741 SUV, the SUV at 10 min [4] was 0.68 SUV and the SUV at 0.5 h [4] was 0.207 SUV. For the same molecule, the SUV at 40 min [4] was 0.18 SUV, the SUV at 1 h [4] was 0.104 SUV and the SUV at 2 h [4] was 0.026 SUV. For the same molecule, the SUV at 5 min [5] was 0.438 SUV, the SUV at 10 min [5] was 0.452 SUV and the SUV at 0.5 h [5] was 0.171 SUV. For the same molecule, the SUV at 40 min [5] was 0.147 SUV, the SUV at 1 h [5] was 0.114 SUV and the SUV at 2 h [5] was 0.0889 SUV. For the same molecule, the SUV at 5 min [6] was 1.12 SUV, the SUV at 10 min [6] was 0.986 SUV and the SUV at 0.5 h [6] was 0.385 SUV. For the same molecule, the SUV at 40 min [6] was 0.427 SUV, the SUV at 1 h [6] was 0.276 SUV and the SUV at 2 h [6] was 0.0631 SUV. For the same molecule, the SUV at 5 min [7] was 0.514 SUV, the SUV at 10 min [7] was 0.295 SUV and the SUV at 0.5 h [7] was 0.214 SUV. The SUV at 40 min [7] was 0.0802 SUV, the SUV at 1 h [7] was 0.0488 SUV and the SUV at 2 h [7] was 0.0213 SUV. The SUV at 2 h (female, 1.4 MBq, SUV ovarian (OV)) was 0.124 SUV, the SUV at 5 min [8] was 0.484 SUV and the SUV at 10 min [8] was 0.443 SUV. For the same molecule, the SUV at 0.5 h [8] was 0.162 SUV, the SUV at 40 min [8] was 0.769 SUV and the SUV at 1 h [8] was 0.113 SUV. It also gave an SUV at 2 h [8] of 0.343 SUV, an SUV at 5 min [9] of 0.423 SUV and an SUV at 10 min [9] of 0.354 SUV. For the same molecule, the SUV at 0.5 h [9] was 0.174 SUV, the SUV at 40 min [9] was 0.135 SUV and the SUV at 1 h [9] was 0.0938 SUV. It also gave an SUV at 5 min (female, SUV adrenals (AD)) of 0.724 SUV, an SUV at 10 min (female, SUV adrenals (AD)) of 1.29 SUV and an SUV at 0.5 h (female, SUV adrenals (AD)) of 0.0127 SUV. It also gave an SUV at 40 min (female, SUV adrenals (AD)) of 0.25 SUV, an SUV at 1 h (female, SUV adrenals (AD)) of 0.198 SUV and an SUV at 2 h (female, SUV adrenals (AD)) of 0.128 SUV. The SUV at 5 min (female, SUV blood (BL)) was 2.06 SUV, the SUV at 5 min (female, SUV kidneys (KI)) was 12.1 SUV and the SUV at 10 min (female, SUV kidneys (KI)) was 11.3 SUV. For the same molecule, the SUV at 0.5 h (female, SUV kidneys (KI)) was 6.32 SUV, the SUV at 40 min (female, SUV kidneys (KI)) was 12.9 SUV and the SUV at 1 h (female, SUV kidneys (KI)) was 12.8 SUV. For the same molecule, the SUV at 2 h (female, SUV kidneys (KI)) was 9.08 SUV, the SUV at 5 min [10] was 0.569 SUV and the SUV at 10 min [10] was 0.91 SUV. It also gave an SUV at 0.5 h [10] of 0.193 SUV, an SUV at 40 min [10] of 0.211 SUV and an SUV at 1 h [10] of 0.103 SUV. For the same molecule, the SUV at 2 h [10] was 0.046 SUV, the SUV at 5 min (female, SUV ovarian (OV)) was 0.927 SUV and the SUV at 10 min (female, SUV ovarian (OV)) was 1.87 SUV. For the same molecule, the SUV at 0.5 h (female, SUV ovarian (OV)) was 0.341 SUV, the SUV at 40 min (female, SUV ovarian (OV)) was 0.335 SUV and the SUV at 1 h (female, SUV ovarian (OV)) was 0.159 SUV. The SUV at 5 min (female, SUV pancreas (PA)) was 0.439 SUV, the SUV at 10 min (female, SUV pancreas (PA)) was 0.361 SUV and the SUV at 0.5 h (female, SUV pancreas (PA)) was 0.164 SUV. It also gave an SUV at 40 min (female, SUV pancreas (PA)) of 0.0609 SUV, an SUV at 1 h (female, SUV pancreas (PA)) of 0.0659 SUV and an SUV at 2 h (female, SUV pancreas (PA)) of 0.029 SUV. For the same molecule, the SUV at 5 min [11] was 0.436 SUV, the SUV at 10 min [11] was 0.558 SUV and the SUV at 0.5 h [11] was 0.277 SUV. It also gave an SUV at 40 min [11] of 0.165 SUV, an SUV at 1 h [11] of 0.129 SUV and an SUV at 2 h [11] of 0.0343 SUV.
